{"source": "patent US20150216795A1", "about": "(SANOFI, priority 2012, published 2015);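 as to Median PFS (99.99% CI): Placebo-controlled comparison, both arms on FOLFIRI every 2 weeks until progression or intolerable toxicity, in patients progressing on or within 6 months after oxaliplatin-based combination chemotherapy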;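 as to Median overall survival (95.34% CI): Placebo-controlled comparison, both arms on FOLFIRI every 2 weeks until progression or intolerable toxicity, in patients progressing on or within 6 months after oxaliplatin-based combination chemotherapy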;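 as to Overall Response: Responders (Complete response or Partial response), %: Placebo-controlled comparison, both arms on FOLFIRI every 2 weeks until progression or intolerable toxicity, in patients progressing on or within 6 months after oxaliplatin-based combination chemotherapy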;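 as to estimated probability of being alive: Placebo-controlled comparison, both arms on FOLFIRI every 2 weeks until progression or intolerable toxicity, in patients progressing on or within 6 months after oxaliplatin-based combination chemotherapy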", "key": {"[1]": {"test_system": "previously treated patients with metastatic colorectal cancer", "details": "pre-treated patients with MCRC; cited from earlier work"}, "[2]": {"test_system": "non-small cell lung cancer (NSCLC)", "details": "added to docetaxel vs docetaxel plus placebo; cited from earlier work"}, "pregnant rabbits": {"test_system": "pregnant rabbits", "test": "Embryo-fetal toxicity study", "assay_type": "in vivo, rabbit", "details": "every 3 days during organogenesis, intravenous, all doses tested", "source_text": "Adverse embryo-fetal effects included increased incidences of postimplantation losses and external (including anasarca, umbilical hernia, diaphragmatic hernia and gastroschisis, cleft palate, ectrodactyly, and atresia), visceral (in the heart, great vessels, and arteries), and skeletal fetal malformations (including fused vertebrae, sternebrae, and ribs; supernumerary arches and ribs, and incomplete ossification). […] The incidence and severity of fetal anomalies increased with increasing dose."}, "[3]": {"test_system": "xenotransplanted colon tumors", "test": "Xenotransplanted colon tumor growth", "assay_type": "in vivo", "details": "mice", "source_text": "(§1) This inhibition can result in decreased neovascularization and decreased vascular permeability."}, "[4]": {"test_system": "colorectal, pancreatic, and lung cancer populations", "test": "Three Phase 3 placebo-controlled clinical studies, GI perforation", "assay_type": "in vivo, human", "details": "across three Phase 3 placebo-controlled studies", "source_text": "Gastrointestinal (GI) perforation including fatal GI perforation can occur in patients receiving ZALTRAP. Across three Phase 3 placebo-controlled clinical studies (colorectal, pancreatic, and lung cancer populations), the incidence of GI perforation (all grades) was 0.8% for patients treated with ZALTRAP and 0.3% for patients treated with placebo. Grade 3-4 GI perforation events occurred in 0.8% of patients treated with ZALTRAP and 0.2% of patients treated with placebo."}, "endothelial cells": {"test_system": "endothelial cells", "test": "Endothelial cell proliferation in animals", "assay_type": "in vivo", "source_text": "as §1"}, "[5]": {"test": "Population pharmacokinetic analysis", "assay_type": "in vivo, human", "source_text": "There are no data available for patients with severe hepatic impairment.\nThere is no data available for patients with severe hepatic impairment (total bilirubin>3×ULN and any SGOT/AST)."}, "[6]": {"test": "Clinical pharmacokinetics, plasma free ziv-aflibercept by ELISA", "assay_type": "in vivo, human"}, "[7]": {"test_system": "patients with metastatic colorectal cancer (MCRC)", "test": "EFC10262 (VELOUR) randomized double-blind phase 3 study: efficacy (OS, PFS, response rate)"}, "human PIGF-2": {"target": "T1, human PIGF-2 (Homo sapiens, UniProt P49763)", "T1 sequence (P49763 19-170 isoform P49763-3 limits assumed)": "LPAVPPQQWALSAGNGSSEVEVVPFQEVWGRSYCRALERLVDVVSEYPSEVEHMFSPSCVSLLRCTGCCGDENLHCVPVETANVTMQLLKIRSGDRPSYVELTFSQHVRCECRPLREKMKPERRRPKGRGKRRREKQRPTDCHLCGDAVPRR", "test": "Binding, equilibrium dissociation constant", "source_text": "as §1"}, "human VEGF-B": {"target": "T2, human VEGF-B (Homo sapiens, UniProt P49765)", "T2 sequence (P49765 31-129 limits assumed)": "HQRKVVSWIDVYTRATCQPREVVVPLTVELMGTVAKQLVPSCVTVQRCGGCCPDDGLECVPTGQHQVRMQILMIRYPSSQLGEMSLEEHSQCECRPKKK", "test": "Binding, equilibrium dissociation constant", "source_text": "as §1"}, "patients with cancer": {"test_system": "patients with cancer", "test": "Pooled safety across completed studies (RPLS, TMA)", "assay_type": "in vivo, human", "source_text": "Severe proteinuria, nephrotic syndrome, and thrombotic microangiopathy (TMA) occurred more frequently in patients treated with ZALTRAP. In patients with mCRC, proteinuria was reported in 62% patients treated with ZALTRAP/FOLFIRI compared to 41% patients treated with placebo/FOLFIRI. Grade 3-4 proteinuria occurred in 8% of patients treated with ZALTRAP/FOLFIRI to 1% of patients treated with placebo/FOLFIRI [see Adverse Reactions (6.1)]. Nephrotic syndrome occurred in 2 patients (0.5%) treated with ZALTRAP/FOLFIRI compared to none of the patients treated with placebo/FOLFIRI. TMA was reported in 3 of 2258 patients with cancer enrolled across completed studies.\nRPLS (also known as posterior reversible encephalopathy syndrome) was reported in 0.5% of 3795 patients treated with ZALTRAP monotherapy or in combination with chemotherapy."}, "[8]": {"test_system": "patients with metastatic colorectal cancer (MCRC)"}, "rabbits": {"test_system": "rabbits", "test": "Excisional and incisional skin wound healing models", "assay_type": "in vivo, rabbit", "details": "for wound healing: repeated administration"}, "[9]": {"test_system": "sexually immature cynomolgus monkeys", "test": "3-month intravenous toxicology study", "assay_type": "in vivo, cynomolgus monkey", "details": "after a post-dosing recovery period"}, "[10]": {"test_system": "patients with various cancers", "test": "Immunogenicity, anti-product antibody (APA) across 15 studies", "assay_type": "in vivo, human", "source_text": "As with all therapeutic proteins, there is a potential for immunogenicity. In patients with various cancers across 15 studies, 1.4% (41/2862) of patients tested positive for anti-product antibody (APA) at baseline. […] Among patients who tested positive for APA and had sufficient samples for further testing, neutralizing antibodies were detected in 17 of 48 ziv-aflibercept-treated patients and in 2 of 40 patients receiving placebo.\nImmunogenicity data are highly dependent on the sensitivity and specificity of the assay. Additionally, the observed incidence of antibody positivity in an assay may be influenced by several factors, including sample handling, timing of sample collection, concomitant medications, and underlying disease. For these reasons, comparison of the incidence of antibodies to ZALTRAP with the incidence of antibodies to other products may be misleading."}, "[11]": {"test_system": "patients with solid tumors", "test": "Cardiac electrophysiology, QTc study", "assay_type": "in vivo, human", "details": "6 mg/kg intravenous every three weeks; 87 patients; large = greater than 20 ms", "protocol": "The effect of 6 mg/kg intravenous ZALTRAP every three weeks on QTc interval was evaluated in 87 patients with solid tumors in a randomized, placebo-controlled study. […] However, a small increase in the mean QTc interval (i.e., less than 10 ms) cannot be excluded due to limitations of the study design."}, "[12]": {"test_system": "sexually mature cynomolgus monkeys", "test": "6-month repeat-dose toxicology study", "assay_type": "in vivo, cynomolgus monkey", "protocol": "Reversibility was observed within 18 weeks after cessation of treatment. Systemic exposure (AUC) with a 3 mg per kg per dose in monkeys was approximately 60% of the AUC in patients at the recommended dose.\nMost ziv-aflibercept-related findings were noted from the lowest dose tested (3 mg per kg per dose) correlating to 60% of the AUC at the human recommended dose."}, "[13]": {"details": "includes death due to disease progression"}}}
{"substance": "ziv-aflibercept: recombinant fusion protein of VEGF-binding portions of human VEGF Receptors 1 and 2 fused to the Fc portion of human IgG1 (SEQ ID NO:1)", "values": [{"measurement": "tolerability", "setting": "[1]", "value": "well tolerated"}, {"measurement": "primary endpoint of improvement in overall survival", "setting": "[2]", "value": "did not meet the pre-specified criteria"}, {"measurement": "embryo-fetal toxicity", "setting": "pregnant rabbits", "value": "produced embryo-fetal toxicity"}, {"measurement": "embryo-fetal toxicity", "setting": "pregnant rabbits; listed as ZALTRAP", "value": "embryotoxic and teratogenic"}, {"measurement": "growth of xenotransplanted colon tumors", "setting": "[3]", "value": "inhibited the growth"}, {"measurement": "Grade 3-4 GI perforation events", "setting": "[4]", "value": 0.8, "unit": "%"}, {"measurement": "incidence of GI perforation (all grades)", "setting": "[4]", "value": 0.8, "unit": "%"}, {"measurement": "proliferation of endothelial cells", "setting": "endothelial cells", "value": "inhibit the proliferation of endothelial cells"}, {"measurement": "increase in systemic exposure in patients weighing >=100 kg", "setting": "[5]; compared to patients weighing 50 to 100 kg", "value": 29, "unit": "%"}, {"measurement": "pharmacokinetic drug-drug interactions with irinotecan/SN-38 or 5-FU", "setting": "[5]; cross-study comparisons and population pharmacokinetic analyses", "value": "No clinically important pharmacokinetic drug-drug interactions"}, {"measurement": "exposure in patients with mild and moderate hepatic impairment vs normal hepatic function", "setting": "[5]; data from 1507 patients", "value": "similar"}, {"measurement": "exposure in patients with mild, moderate, and severe renal impairment vs normal renal function", "setting": "[5]; data from 1507 patients", "value": "similar"}, {"measurement": "effect of age, race, and gender on the exposure of free ziv-aflibercept", "setting": "[5]; in vivo", "value": "did not have a clinically important effect"}, {"measurement": "dose linearity of free ziv-aflibercept concentrations", "setting": "[6]; dose range of 2-9 mg/kg", "value": "linear pharmacokinetics"}, {"measurement": "Steady state concentrations of free ziv-aflibercept reached", "setting": "[6]; human, in vivo", "value": "by the second dose"}, {"measurement": "estimated probability of being alive", "setting": "[7]; 12 months from randomization", "value": 56.1, "unit": "%"}, {"measurement": "estimated probability of being alive", "setting": "[7]; 18 months from randomization", "value": 38.5, "unit": "%"}, {"measurement": "Median overall survival (95.34% CI)", "setting": "[7]; ITT population, all patients, cutoff 7 FEB. 2011", "value": 13.50, "unit": "months"}, {"measurement": "Median PFS (99.99% CI)", "setting": "[7]; ITT population, all patients, tumor assessment by the IRC, cutoff 6 MAY 2010", "value": 6.90, "unit": "months"}, {"measurement": "Overall Response: Responders (Complete response or Partial response), %", "setting": "[7]; by IRC, evaluable patient population N = 531", "value": 19.8, "unit": "%"}, {"measurement": "reduction of risk of death", "setting": "[7]; compared to placebo, from hazard ratio", "value": 18.3, "unit": "%"}, {"measurement": "PFS HR (99.99% CI)", "setting": "[7]; liver metastasis only group", "value": 0.547}, {"measurement": "PFS HR (99.99% CI)", "setting": "[7]; no liver metastasis, or other metastases group", "value": 0.839}, {"measurement": "Kd", "setting": "human PIGF-2", "value": 0.039, "unit": "nM"}, {"measurement": "Kd", "setting": "human VEGF-B", "value": 0.00192, "unit": "nM"}, {"measurement": "RPLS (posterior reversible encephalopathy syndrome)", "setting": "patients with cancer; 3795 patients, monotherapy or in combination with chemotherapy", "value": 0.5, "unit": "%"}, {"measurement": "thrombotic microangiopathy (TMA)", "setting": "patients with cancer; patients with cancer enrolled across completed studies", "value": "3 of 2258"}, {"measurement": "Grade 3 GI fistula formation", "setting": "[8]; 2 patients", "value": 0.3, "unit": "%"}, {"measurement": "Patients with any TEAE leading to death", "setting": "[8]; Safety population N = 611", "value": "37 (6.1%) number (%) of patients"}, {"measurement": "dose reduced and/or omitted", "setting": "[8]; Study 1", "value": "17 % of patients"}, {"measurement": "occurrence of grade 3-4 treatment emergent adverse events", "setting": "[8]; in vivo", "value": 83.5, "unit": "%"}, {"measurement": "premature treatment discontinuation due to adverse events", "setting": "[8]; in vivo", "value": 19.5, "unit": "%"}, {"measurement": "rate of permanent discontinuation of study treatment due to adverse events", "setting": "[8]; in vivo", "value": 26.8, "unit": "%"}, {"measurement": "patients with adverse events that led to death after 30 days of last dosing", "setting": "[8]; [13]", "value": 12}, {"measurement": "patients with adverse events that led to death within 30 days of last dosing", "setting": "[8]; [13]", "value": 28}, {"measurement": "full-thickness excisional and incisional skin wound model findings", "setting": "rabbits; rabbit, in vivo", "value": "reduced fibrous response, neovascularization, epidermal hyperplasia/re-epithelialization, and tensile strength"}, {"measurement": "wound healing", "setting": "rabbits", "value": "delay in wound healing"}, {"measurement": "wound healing", "setting": "rabbits; listed as ZALTRAP", "value": "impairs wound healing"}, {"measurement": "reversibility of skeletal and nasal cavity effects", "setting": "[9]", "value": "not reversible"}, {"measurement": "neutralizing antibodies detected", "setting": "[10]; among APA-positive patients with sufficient samples", "value": "17 of 48"}, {"measurement": "incidence of APA development", "setting": "[10]; intravenous, 53/1687 patients", "value": 3.1, "unit": "%"}, {"measurement": "mean free ziv-aflibercept trough concentrations in patients with positive neutralizing antibodies", "setting": "[10]; versus the overall population", "value": "lower"}, {"measurement": "change in the mean QT interval from baseline (Fridericia correction)", "setting": "[11]", "value": "No large changes in the mean QT interval"}, {"measurement": "reproductive function and fertility", "setting": "[12]; all doses tested including 3 mg per kg", "value": "impaired reproductive function and fertility"}, {"measurement": "reversibility of reproductive findings after cessation of treatment", "setting": "[12]; monkeys", "value": "≤ 18", "unit": "weeks"}, {"measurement": "repeat-dose toxicity findings", "setting": "[12]; weekly/every two weeks intravenous for up to 6 months, from 3 mg per kg per dose", "value": "changes in the bone"}]}
